Laboratory results published in the nanobody polyreactivity screen of Harvey et al. (2022).

Experiment: yeast display, Sf9 membrane polyspecificity reagent, FACS + sequencing; frameworks hold sequencing errors
In short: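 Galactose induction of a Saccharomyces cerevisiae BJ5465 synthetic nanobody display library ran 36–48 hours. The cells were then stained for 1 hour at 4 °C with 10% biotinylated, detergent-solubilized Sf9 membrane reagent, pulled down on streptavidin microbeads and FACS-sorted into low and high (top ~1%) gates on expression and reagent-binding fluorescence. Labels for polyreactivity follow the gate of origin.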

Row | Sequence | polyreactivity (PSR sort gate)
1 | QVQLVESGGGLVQAGGSLRLSCAASGFIFYLYAMGWYRQAPGKERELVAAISSSGGGTYYADSVKGRFTISRDNAKNTVYLQMNSLKPEDTAVYYCNVPLSYRSEYDYWGQGTQVTVSS | high polyreactivity
2 | QVQLVESGGGLVQAGGSLRLSCAASGFIFYLYAMGWYRQAPGKERELVAAISWSGGITYYADSVKGRFTISRDNAKNTVYLQMNSLKPEDTAVYYCNAVGASASDGDYWGQGTQVTVSS | high polyreactivity
3 | QVQLVESGGGLVQAGGSLRLSCAASGFIFYLYAMGWYRQAPGTERELVAAISSSGGGTYYADSVKGRFTISRDNAKNTVYLQMNSLKPEDTAVYYCNVPLSYRSEYDYWGQGTQVTVSS | high polyreactivity
4 | QVQLVESGGGLVQAGGSLRLSCAASGFIFYNALGWYRQAPGKERELVAAISSGGNTNYADSVKGRFTISRDNAKNTVYLQMNSLKPEDTAVYYCNAGLYQYDGWANYIRYDYWGQGTQVTVSS | low polyreactivity
5 | QVQLVESGGGLVQAGGSLRLSCAASGFIFYNYAMGWYRQAPGKERELVAAISASGGRTYYADSVKGRFTISRDNAKNTVYLQMNRLKPEETAVYYCNARVNYKGYDYWGQGTQVTVSS | high polyreactivity
6 | QVQLVESGGGLVQAGGSLRLSCAASGFIFYNYAMGWYRQAPGKVRELVAAISASGGRTYYADSVKGRFTISRDNAKNTVYLQMNRLKPEDTAVYYCNARVNYKGYDYWGQGTQVTVSS | high polyreactivity
7 | QVQLVESGGGLVQAGGSLRLSCAASGFIFYNYDMGWYRQAPGKERELVAAITGGGSTNYADSVKGRFTISRDNAKNTVYLKMNSLKPEDTAVYYCAAEEGPPCYRYDYWGQGTQVTVSS | low polyreactivity
8 | QVQLVESGGGLVQAGGSLRLSCAASGFIFYPNPMGWYRQAPGKERELVAAITSGGSTYADSVKGRFTISRDNAKNTVYLQMNSLKPEDTAVYYCAAVDTSIITFWYIASDGFDYWGQGTQVTVSS | low polyreactivity
9 | QVQLVESGGGLVQAGGSLRLSCAASGFIFYPYAMGSYRQAPGKERELVAAITSSGGSTYYADSVKGRFTISRDNAKNTVYLQMNSLKPEDTAVYYCAAYTSYYGTIIAFRYYYWGQGTQVTVSS | high polyreactivity
10 | QVQLVESGGGLVQAGGSLRLSCAASGFIFYQYAMGWYRQAPGKERELVAAISWGGGSTYYADSVKGRFTISRDNAKNTVYLQMNSLKPEDTAVYYCAATGLGWHSYHEYDYWGQGTQVTVSS | low polyreactivity
11 | QVQLVESGGGLVQAGGSLRLSCAASGFIFYQYAMGWYRQAPGKERELVATISFRGGRTYYADSVKGRFTISRDNAKNTVYLQMNSLKPEDTAVYYCNAKRVSSRFYKWDYYWGQGTEVTVSS | high polyreactivity
12 | QVQLVESGGGLVQAGGSLRLSCAASGFIFYRNTMGWYRQAPGKERELVATISRRGGSTYYADSVKGRFTISRDNAKHTVYLQMNSLKPEDTAVYYCNADQEYSRPRYGMDYWGQGTQVTVSS | high polyreactivity
13 | QVQLVESGGGLVQAGGSLRLSCAASGFIFYRYAMGWYRQAPGKERELVAAISYSGGSTYYADSVKGRFTISRDNAKNTVYLQMNSLKPEDTAVYYCAKGLTALGDYWGQGTQVTVSS | high polyreactivity
14 | QVQLVESGGGLVQAGGSLRLSCAASGFIFYRYAMGWYRQQPGKERELVAAISSRGGTTYYADSVKWRFTISRDNAKNTVYLQMNSLKPEDTAVYYCAADRGYKMGYWLQGTQVTVSS | high polyreactivity
15 | QVQLVESGGGLVQAGGSLRLSCAASGFIFYRYTMGWYRPAPGKERELVASITWSDGSTSYADSVNGRFTISRDNAKNTVYLQMNSLKPEDTAVYYCAADVSYQVIYEYDYSGQGTQVTVSS | low polyreactivity
16 | QVQLVESGGGLVQAGGSLRLSCAASGFIFYRYTMGWYRQAPGKERELVAAITSAGSTYYADSVKGRFTISRDNAKNTVYLQMNSLKPEDTAVYYCNADSTWGGYGFDYWGQGTQVTVSS | low polyreactivity
17 | QVQLVESGGGLVQAGGSLRLSCAASGFIFYRYTMGWYRQAPGKERELVAGISSRGTRTYYADSVKGRFTISRDNAKNTVYLQMNSLKPEDTAVYYCAAVLTQPKKVNYWGQGTQVTVSS | high polyreactivity
18 | QVQLVESGGGLVQAGGSLRLSCAASGFIFYRYVMGWFRQAPGKERELVAAISGRGGSTYYADSVKGRFTISRDNAKNTVYLQMNSLTPEDTAVYYCNRLVYRAAGGPMDYWGQGTQVTVSS | high polyreactivity
19 | QVQLVESGGGLVQAGGSLRLSCAASGFIFYSNAMGWYRQAPGKERELVAAISRGGGSTYYADSVKGRFTISRDNAKNTVYLQMNSLKPEDTAVYYCAAELYRWYYYWGQGTQVTVSS | high polyreactivity
20 | QVQLVESGGGLVQAGGSLRLSCAASGFIFYSNAMGWYRQAPGKERELVAAISWDAGSTYYADSVKGRFTISRDNAKNTVYLQMNSLKPEDTAVYYCATDRIVGRYIYNNWGQGTQVTVSS | high polyreactivity
21 | QVQLVESGGGLVQAGGSLRLSCAASGFIFYSNMGWYRQARGKEREFVAAITWRGGSTYADSVKGRFTISRDNAKNTVYLQMNSLKPEDTAVYYCARESYRAHTPGHPSGTRFGYWGQGTQVTVSS | high polyreactivity
22 | QVQLVESGGGLVQAGGSLRLSCAASGFIFYTYAMGWYRQAPGKERELGADITSGGSTYYADSVKGRFTISRDNAKNTVYLQMNSLKPEDTAVYYCAADPGYPANRTEWRDFDYWGQGTQVTVSS | low polyreactivity

Row | Sequence | polyreactivity (PSR sort gate)
23 | QVQLVESGGGLVQAGGSLRLSCAASGFIFYVYAMGWYRQAPGKERELVATITSGGSTNYADSVKGRFTISRDNAKNTVYLQMNSLKPEDTAVYYCAADGWQSQYEYDYWGQGTQVTVSS | low polyreactivity
24 | QVQLVESGGGLVQAGGSLRLSCAASGFIFYWYAMGWYRQAPWKEREFVAAISSSGGNTSYADSVKGRFTISRDNAKNTVYLQMNSLKPEVTAVYYCAATSRAFYRSLYYYWGQGTQVTVSS | low polyreactivity
25 | QVQLVESGGGLVQAGGSLRLSCAASGFIFYYNAMGWYRQAPGKERELVAAISSRGGSTYYADSVKGRFTISRDNAKNTVYLQMNSLKPEDTAVYYCNAKRYFRNHFRTGGMYYWGQGTQVTVSS | high polyreactivity
26 | QVQLVESGGGLVQAGGSLRLSCAASGFIFYYNAMGWYRQAPGKERELVAGISRSAGSTYYADSVKGRFTISRDNAKNTVYLQMNSLKPEDTAVYYCNAEVYGGRYYVDMYYWGQGTQVTVSS | low polyreactivity
27 | QVQLVESGGGLVQAGGSLRLSCAASGFIFYYYAMGWYRQAPGKEREFVAGISRSGGSTYYADSVKGRFTISRDNAKNTVYLQMKSLKPEDTAVYYCAARYVQHKIYRLAQGEYWGQGTQVTVSS | high polyreactivity
28 | QVQLVESGGGLVQAGGSLRLSCAASGFIFYYYAMGWYRQAPGKERELVAAISTSGGSTYYADSVKGRFTISRDNAKNTVYLQMNSLKPEDTAVYYCAAKIIGRPRTTDRYDYWGQGTQVTVSS | low polyreactivity
29 | QVQLVESGGGLVQAGGSLRLSCAASGFIFYYYAMGWYRQAPGKERELVAAISWSGARTYYADSVKGRFTISRDNAKNTVYLQMNSLKPEDTAVYYCNAVAFYPRSSRSWRLDYWGQGTQVTVSS | high polyreactivity
30 | QVQLVESGGGLVQAGGSLRLSCAASGFIFYYYAMGWYRQAPGKERELVAAISWSGGITYYADSVKGRFTISRDNAKNTVYLQMNSLKPEDTAVYYCNAVSSGDMDYWGQGTQVTVSS | high polyreactivity
31 | QVQLVESGGGLVQAGGSLRLSCAASGFIFYYYAMGWYRQAPGKERELVAAISWSGGRTYYADSVKGRFTISRDNAKNTVYLQMNSLKPEDTAVYYCAAVGYSKRYIYWGQGTQVTVSS | high polyreactivity
32 | QVQLVESGGGLVQAGGSLRLSCAASGFIFYYYAMGWYRQAPGKERELVAAITQGGGSTYYADSVKGRFTISRDNAKNTVYLQMNSLKPEDTAVYYCAAVKRVYAHSRAFSSDFYYWGQGTQVTVSS | high polyreactivity
33 | QVQLVESGGGLVQAGGSLRLSCAASGFIFYYYDMGWYRQAPGKERELVAAITYDGGSTYYADSVKGRFTISRDNAKNTVYLQMNSLKPEDTAVYYCNAVYGQYYDYWGQGTQVTVSS | low polyreactivity
34 | QVQLVESGGGLVQAGGSLRLSCAASGFIFYYYTMGWYRQEPGKEREFVAAITYSGGRTYYADSVKGRFTISRDNAKNTVYLQMNSLKPEDTAVYYCAVALFETGHYYWGQGTQVTVSS | high polyreactivity
35 | QVQLVESGGGLVQAGGSLRLSCAASGFIIANNAMGWYRQAPGKERELVASIRTRGGSTYYADSVKGRFTISRDNAKNTVYLQMNSLKPEDTAVYYSAARPFPRRYDYWGQGTQVTVSS | low polyreactivity
36 | QVQLVESGGGLVQAGGSLRLSCAASGFIIAYYAMGWYRQAPGKEREWVAAITSDGGSTYYADSVKGRFTISRDNAKNTVYLQMNSLKPEDTAVYYCAAQGYPYGRLWGGYYRYDYWGQGTQVTVSS | high polyreactivity
37 | QVQLVESGGGLVQAGGSLRLSCAASGFIIGFNAMGWYRQAPGKERELVAAISGSGGRTYYADSVKGRFTISRDNAKNTVYLQMNSLKPEDTAVYYCAKVGYKSPYLYSQHYTGFGYWGQGTQVTVSS | high polyreactivity
38 | QVQLVESGGGLVQAGGSLRLSCAASGFIIGRNAMGWYRQAPGKERELVAAMSTSGASTYYADSVKGRFTISRDNAKNTVYFQMNSLKPEDTAVYYCAARRPVWDGRGSGYDYWGQGTQVTVSS | low polyreactivity
39 | QVQLVESGGGLVQAGGSLRLSCAASGFIIGVYAMGWYRQAPGKEREFVAAISLTGGSTSYADSVKGLFTISRDNAKNTVYLQMNSLKREDTAVYYCAADAWFWVRWGENYWGQGTQVTVSS | low polyreactivity
40 | QVQLVESGGGLVQAGGSLRLSCAASGFIIGYYAMGWYRQAPGKVREFVAAISRSGGSTYYADSVKGRFTISRDNAKNTVYLQMNSLKPEDTSVYYCAADYQKTYTSKFNYWGQGTQVTVSS | high polyreactivity
41 | QVQLVESGGGLVQAGGSLRLSCAASGFIIKVYAMGWYRQAPGKERELVAAITWSGGSTYYADSVKGRFTISRDNAKNTVYLQMNSLKPEDTAVYYCAADTYYPDWITYPQGDFDYWGQGTQVTVSS | low polyreactivity
42 | QVQLVESGGGLVQAGGSLRLSCAASGFIIKYYAMGWYRQAPGKERELVAAIDGSSASTYYADSVKGRFTISRDNAKNTVYLQMNSLKPEDTPVYYCAVARLRRGGVQYGYWGQGTQVTVSS | high polyreactivity
43 | QVQLVESGGGLVQAGGSLRLSCAASGFIIPGYAMGWYRQAPGKEREFVAAISRSGGSTYYADSVKGRFTISRDNAKNTVYLQMNSLKPEDSAVYYCATRARGYTGYDYWGQGTQVTVSS | high polyreactivity
